Biological target: T1, Androgen receptor (AR) (Homo sapiens?) (UniProt P10275)
T1 sequence: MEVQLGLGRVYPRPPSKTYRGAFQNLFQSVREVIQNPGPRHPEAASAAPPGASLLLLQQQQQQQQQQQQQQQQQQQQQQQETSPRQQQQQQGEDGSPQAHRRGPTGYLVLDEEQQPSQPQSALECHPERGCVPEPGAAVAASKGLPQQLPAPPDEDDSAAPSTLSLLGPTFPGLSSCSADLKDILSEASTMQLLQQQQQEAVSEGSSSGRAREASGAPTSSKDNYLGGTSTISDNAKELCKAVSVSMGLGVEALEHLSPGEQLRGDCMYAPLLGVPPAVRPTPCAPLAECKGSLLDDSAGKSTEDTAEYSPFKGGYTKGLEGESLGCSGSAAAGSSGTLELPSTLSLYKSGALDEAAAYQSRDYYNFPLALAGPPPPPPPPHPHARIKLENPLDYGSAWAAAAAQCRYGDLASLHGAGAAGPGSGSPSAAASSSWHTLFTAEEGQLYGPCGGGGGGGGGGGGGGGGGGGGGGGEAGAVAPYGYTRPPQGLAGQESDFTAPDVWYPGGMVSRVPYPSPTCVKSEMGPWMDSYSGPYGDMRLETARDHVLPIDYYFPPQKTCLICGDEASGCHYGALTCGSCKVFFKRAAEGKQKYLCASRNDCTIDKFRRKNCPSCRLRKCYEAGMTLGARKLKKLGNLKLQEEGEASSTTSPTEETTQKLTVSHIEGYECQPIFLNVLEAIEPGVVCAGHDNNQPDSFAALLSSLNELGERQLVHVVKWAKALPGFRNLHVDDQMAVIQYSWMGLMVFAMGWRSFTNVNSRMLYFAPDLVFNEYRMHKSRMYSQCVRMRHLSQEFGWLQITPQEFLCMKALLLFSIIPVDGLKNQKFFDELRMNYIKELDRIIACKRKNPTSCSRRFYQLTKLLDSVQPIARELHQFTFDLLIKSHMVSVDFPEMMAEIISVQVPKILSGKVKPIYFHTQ
Experiment: pulldown
Conditions: RIP; not significantly above background SLNCR

Substance SLNCR1 delta 568-637 has a binding signal (fold enrichment) of 14.

From US20190071668
